Experimental findings from article doi:10.1101/2021.04.26.441501 (bioRxiv, 2021) are described below.

The test deals with SARS-CoV-2 RBD (residues 319-514) with C-terminal hexahistidine tag (Severe acute respiratory syndrome …, UniProt P0DTC2). Nature of the test: ELISA.

B1: SARS2-38 (murine IgG1 mAb) (antibody, V domains shown)
VH: QVQLKESGPGLVAPSQSLSITCTVSGFSLTRYGVHWVRQPPGKGLEWLGVIWADGSTYYNSALMSRLSISKDNSKSQVFLNMNSLQTDDTAKYYCARDGRGYDDYWGQGTTLTVSS
VL: QIVLTQSPAIMSASPGEKVTMTCSASSTVSFIYWYQQKPGSSPRLLIYDTSNPASGVPVRFSGSGCGTSYYLTISRMEAEDAATYYCQQWNTYPLTFGAGTKLELK
In the case of B1, the binding result is “binds”.
